Source: patent US20230348572A1
Like-named read-outs stand apart in the source and are kept apart here.

Tests used:
[1] = target: RBD (amino acids 340-538 NITN.GPKK) expressed on the surface of MDCK-SIAT1 cells (SARS-CoV-2) (UniProt P0DTC2)
[2] = target: RBD-6H (amino acid 340-538; NITN.GPKK), biotinylated (SARS-CoV-2) (UniProt P0DTC2)
[3] = target: RBD-6H (amino acid 340-538; NITN.GPKK), biotinylated (SARS-CoV-2) (UniProt P0DTC2); remark: listed apart in the source

H11-H4-Fc (Fc fusion)
IC50 [1]: 34 nM
IC50 [2]: 61 nM

CR3022-Fc (antibody)
IC50 [3]: 803 nM

VHH72-Fc (Fc fusion)
IC50 [1]: 33 nM
IC50 [2]: 262 nM
